From patent US20120321609A1, “METHOD OF TREATING PSYCHOLOGICAL DISORDERS” (priority 2011, published 2012)

What was measured:
5-HT2AR = biological target: T1, 5-HT2AR (Homo sapiens, UniProt P28223); experiment: 5-HT-stimulated inositol phosphate formation in HEK 293 cells transfected with FLAG-5-HT2AR and HA-CRFR1; assay type: cell-based
T1 construct: expressed in transfected cells; host or cells: HEK 293

5-HT2CR = biological target: T2, 5-HT2CR (Homo sapiens, UniProt P28335); experiment: 5-HT-stimulated inositol phosphate formation in HEK 293 cells transfected with FLAG-5-HT2CR and HA-CRFR1; assay type: cell-based
T2 construct: expressed in transfected cells; host or cells: HEK 293
T2 sequence (P28335 33-458): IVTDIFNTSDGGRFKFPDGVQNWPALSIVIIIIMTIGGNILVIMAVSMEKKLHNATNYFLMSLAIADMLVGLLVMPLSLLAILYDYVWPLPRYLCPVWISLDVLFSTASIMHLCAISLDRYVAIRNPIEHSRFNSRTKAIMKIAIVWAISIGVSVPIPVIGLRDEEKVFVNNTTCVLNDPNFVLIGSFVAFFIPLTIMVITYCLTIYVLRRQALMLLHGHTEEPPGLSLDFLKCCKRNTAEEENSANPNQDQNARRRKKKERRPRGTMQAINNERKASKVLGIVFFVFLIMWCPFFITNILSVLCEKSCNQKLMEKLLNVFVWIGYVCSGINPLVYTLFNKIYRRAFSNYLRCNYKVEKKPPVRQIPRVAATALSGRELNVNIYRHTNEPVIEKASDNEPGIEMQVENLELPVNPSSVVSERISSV

mouse neuronal cultures = experiment: Inositol phosphate formation in mouse cortical neuronal cultures; assay type: cell-based; conditions: CRF 500 nM pretreatment 30 min; 5-HT 50 μM
mice = experiment: Open field test (anxiety-related behaviour); assay type: in vivo, mouse; conditions: 5 min test; CRF 1.5 μg into medial prefrontal cortex, DOI 0.15 mg/kg i.p.; vs vehicle-vehicle or single treatment
Procedure: Male CD-1 mice were obtained from Charles River Canada (St. Constant, Quebec) at 50-60 days of age, and were acclimatized to the laboratory for approximately 30 days before serving as experimental subjects. Mice were housed four per cage, until the time of surgery, after which they were housed individually. The vivarium was maintained on a 12-h light/dark cycle in a temperature (21° C.) controlled room with food and water freely available. Mice were anesthetized using isoflurane and stereotaxic surgery (David Kopf Instruments Model 940) was performed to install a cannulae into the medial prefrontal cortex. A Guide cannulae (Plastics One In), situated according to the mouse atlas of Franklin and Paxinos at Lateral=0.32 mm, D/V=2.25 mm, A/P=+2.68 mm. A dummy cannula, was inserted flush with guide. Approximately 1 week after behavioral testing mice were perfused with 4% paraformaldehyde. […]
In an initial test, mice were placed in a 45×45 cm open field, with an inner square of 21×24×24 cm., for a 5 min period, during which the time to enter the center area, and the total time spent in the center portion of the arena was recorded. […] Mice were individually placed in one of the enclosed arms of a plus-maze and the behavior of the animals was recorded over a 5 min period by a ceiling-mounted video camera. […]

HA-CRFR1 = biological target: T3, HA-CRFR1 (Homo sapiens, UniProt P34998); experiment: Receptor endocytosis by flow cytometry in HEK 293 cells; assay type: cell-based; conditions: 500 nM CRF for 30 min at 37° C.; cells expressing only wild-type CRFR1
T3 construct: expressed in transfected cells; host or cells: HEK 293
T3 sequence (P34998 24-415): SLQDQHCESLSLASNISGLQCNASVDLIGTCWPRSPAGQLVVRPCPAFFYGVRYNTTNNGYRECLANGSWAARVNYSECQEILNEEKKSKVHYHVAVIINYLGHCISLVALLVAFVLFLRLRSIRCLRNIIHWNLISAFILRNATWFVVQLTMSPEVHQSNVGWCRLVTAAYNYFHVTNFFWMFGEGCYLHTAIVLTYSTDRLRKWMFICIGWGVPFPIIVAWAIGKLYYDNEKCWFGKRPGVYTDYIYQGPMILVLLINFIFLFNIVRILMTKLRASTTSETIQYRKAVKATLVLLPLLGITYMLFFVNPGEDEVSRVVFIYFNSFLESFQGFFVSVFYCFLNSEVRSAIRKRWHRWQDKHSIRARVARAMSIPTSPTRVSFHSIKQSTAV
Procedure: Cells were seeded on 10 cm dishes at 70-80% density 24 h prior to transfection. Transfection was performed using a modified calcium phosphate method, as described previously (Ferguson et al. (2004) Methods Mol. Biol. 237, 121-126). 1 μg of each construct was used for each transfection, with the exception that 3 μg of plasmid cDNA was used for all shRNA constructs. Empty pcDNA3.1 vector was used to equalize the total amount of plasmid cDNA used to transfect cells. 18 h post-transfection, cells were washed with phosphate buffered saline (PBS) and re-suspended with Trypsin 0.25% EDTA. Cells were then reseeded for experimentation. All experiments were conducted approximately 48 h after the initial transfection, with exception of transfections involving SAP97 shRNA, which were conducted 72 h after initial transfection to optimize the knockdown of endogenous SAP97, as confirmed by Western blotting.
Following transfection, HEK 293 cells were re-seeded into 12-well plates. […] Cells were washed with cold HBSS and treated with mouse anti-HA antibody (1:500) for 45 min on ice. […] Samples were run on a FACSCalibur cytometer using BD CellQuest Pro software until 10,000 cells were counted. The geometric mean of fluorescence was determined using FlowJo analysis software, with less fluorescence corresponding to less CRFR1 on the membrane.

T1 sequence (P28223 whole entry): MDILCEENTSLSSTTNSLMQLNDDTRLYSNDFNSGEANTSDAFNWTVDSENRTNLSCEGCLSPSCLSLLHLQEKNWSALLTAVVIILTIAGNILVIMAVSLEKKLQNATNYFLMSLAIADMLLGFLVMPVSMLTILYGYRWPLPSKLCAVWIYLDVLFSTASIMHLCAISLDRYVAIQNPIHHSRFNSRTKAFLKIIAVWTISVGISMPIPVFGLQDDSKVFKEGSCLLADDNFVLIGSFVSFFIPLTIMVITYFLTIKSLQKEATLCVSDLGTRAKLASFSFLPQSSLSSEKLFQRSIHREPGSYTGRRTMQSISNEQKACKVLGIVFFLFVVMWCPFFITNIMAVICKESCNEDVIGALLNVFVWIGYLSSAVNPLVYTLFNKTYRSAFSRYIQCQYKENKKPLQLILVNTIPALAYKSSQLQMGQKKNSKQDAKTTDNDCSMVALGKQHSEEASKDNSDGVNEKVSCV

CRF: 41 amino acid peptide that activates the HPA axis; agonist of CRF receptors
increase in maximum efficacy (EMAX) for 5-HT2AR-stimulated inositol phosphate formation (5-HT2AR; CRF pretreatment 500 nM for 30 min, cells expressing 5-HT2AR along with CRFR1): 40±4.7% | effect of pretreatment on 5-HT dose-response curve for inositol phosphate formation, 5-HT2AR (5-HT2AR; HEK 293 cells expressing 5-HT2AR in the absence of CRFR1, CRF 500 nM 30 min): had no effect | inositol phosphate formation by CRF treatment itself (5-HT2CR; CRF 500 nM 30 min, cells expressing 5-HT2CR alone, CRFR1 alone or both receptors): did not result in inositol phosphate formation | increase in maximum efficacy (EMAX) for 5-HT2CR-stimulated inositol phosphate formation (5-HT2CR; CRF pretreatment 500 nM for 30 min, cells expressing 5-HT2CR along with CRFR1): 47±5.5% | effect of pretreatment on 5-HT dose-response curve for inositol phosphate formation, 5-HT2CR (5-HT2CR; HEK 293 cells expressing 5-HT2CR in the absence of CRFR1, CRF 500 nM 30 min): had no effect | effect of pretreatment on 5-HT-stimulated [3H]-myo-inositol conversion to inositol phosphate (mouse neuronal cultures): significantly increase | latency to enter the center square of open field (mice): neither the CRF nor the DOI treatments alone influenced performance | loss of cell surface HA-CRFR1 (HA-CRFR1): 24±4%
